{"source": "patent US20170173105A1", "about": "“AUTOASSEMBLING PEPTIDES FOR THE TREATMENT OF PULMONARY LEAKAGE” (3-D MATRIX, LTD., priority 2014, published 2017)", "key": {"[1]": {"experiment": "Appearance of 1.5% peptide solutions with various salts at room temperature", "assay_type": "physicochemical", "details": "for Appearance: IEIK13 solution, room temperature", "procedure": "The effect of salt ionic strength level on the properties of peptide solutions was evaluated to identify optimized salt ionic strength levels for the peptides as described herein. Increasing the salt ionic strength level of PuraMatrix® and other peptides may generally improve its function and mechanical strength for various clinical applications. To adjust the salt ionic strength of the peptide solutions by way of example, various salt buffer solutions including NaCl, KCl, MgCl2, CaCl2 and DPBS (10×) were added to 2 mL of 1.5% peptide solutions."}, "[2]": {"experiment": "Rheological properties of peptide solutions and hydrogels after salt ionic strength adjustment", "assay_type": "physicochemical", "procedure": "Based on the visual observation of the effect of salt ionic strength on the properties of the peptide solutions, the effect on the rheological properties of the peptide solutions after adjusting their ionic strength level with NaCl to 0.7 M (PuraMatrix®), 0.2 M (KLD12) or 0.02 M (IEIK13), which is closely below the critical ionic strength at which each peptide becomes cloudy, was evaluated. If the ionic strength levels with NaCl of peptide solutions are higher than 0.9 M (PuraMatrix®), 0.3 M (KLD12) or 0.03 M (IEIK13), the peptide solution begin phase separation becoming cloudy and weak. The rheological property of PuraMatrix®, KLD12 and IEIK13 solutions was higher after adjusting their ionic strength level with NaCl to 0.7 M (PuraMatrix®), 0.2 M (KLD12) or 0.02 M (IEIK13), The results are shown in FIG. 10 for KLD12 1%, FIG. 11 for IEIK13 1%, and FIG. 12 for PuraMatrix® 1%, respectively. Frequency sweep tests were performed from 1 rad/s to 10 rad/s at 1 Pa.\nBased on the results of the effect on the rheological properties of the peptide solutions after adjusting their ionic strength level with NaCl to 0.7 M (PuraMatrix®), 0.2 M (KLD12) or 0.02 M (IEIK13), the effect on the rheological properties of the peptide solution at various salt ionic strengths was evaluated. […] The results are shown in FIG. 13 for PuraMatrix® 1% solution and in FIG. 14 for IEIK13 1% solution. Frequency sweep tests were performed from 1 rad/sec to 10 rad/sec at 1 Pa and the storage modulus at 1 rad/sec was selected for data.\nBased on the results of the effect on the rheological properties of the peptide solutions after adjusting their ionic strength levels, the effect on the rheological properties of the peptide hydrogels after DMEM treatment for 10 min was evaluated. […] The results are shown in FIG. 15 for PuraMatrix® 1% hydrogels and in FIG. 16 for IEIK13 1% hydrogels, both after DMEM treatment for 10 min Frequency sweep tests were performed from 1 rad/sec to 10 rad/sec at 1 Pa and the storage modulus at 1 rad/sec was selected for data.\nBased on the results of the effect on the rheological properties of the peptide solutions and hydrogels after adjusting their ionic strength levels with NaCl, the effect of various salts (KCl, MgCl2, and CaCl2) was also evaluated. The rheological property of PuraMatrix® solutions increases with ionic strength adjustment at 0.15 M of all the salts. Increases of the rheological property of PuraMatrix® solutions with various salts were not predominantly different. However, increases of the rheological property of PuraMatrix® solutions may vary depending on the salting out constant, K of each salt. Constant K is a constant in Cohen's equation: log S=B−KI, where S is solubility, B is idealized solubility, K is salting out constant, and I is ionic strength. With a higher value of constant K and ionic strength of salts, solubility of the peptide may decrease resulting in strong peptide self-assembly with increased hydrophobic effect and higher rheological properties of the peptide solution. The constant K of NaCl may be higher than the other salts. […] The results are shown in FIG. 17 for PuraMatrix® 1% solution before DMEM treatment, and in FIG. 18 for PuraMatrix® 1% hydrogels after DMEM treatment for 10 min.\nIn accordance with one or more embodiments, IEIK13, KLD12, and PuraMatrix® may be dissolved both in salt buffer such as NaCl and at an elevated pH level adjusted with alkali salt buffer such as NaOH to keep their salt ionic strength under their critical salt points as well as their pH level to about 2.5˜4.0, so that they may have stiffer properties. With respect to PuraMatrix®, […] and IEIK13, the peptide solutions are still clear with 0.9% NaCl (ionic strength: 0.15 M) at pH 3.4 adjusted with NaOH. […] The effect of salt ionic strength and pH adjustment on the rheological properties of PuraMatrix® 2.5% solution are shown in FIG. 20. […]"}}}
{"substance": "Ile-Glu-Ile-Lys-Ile-Glu-Ile-Lys-Ile-Glu-Ile-Lys-Ile [IEIK13]", "values": [{"measurement": "Appearance", "setting": "[1]; CaCl2 0 M, ionic strength 0 M, conc. 1.5%", "result": "Clear, thick gel"}, {"measurement": "Appearance", "setting": "[1]; CaCl2 0.005 M, ionic strength 0.015 M, conc. 1.46%", "result": "Clear, thick, stiffer gel"}, {"measurement": "Appearance", "setting": "[1]; CaCl2 0.0067 M, ionic strength 0.02 M, conc. 1.45%", "result": "Clear, thick, stiffer gel"}, {"measurement": "Appearance", "setting": "[1]; CaCl2 0.0083 M, ionic strength 0.025 M, conc. 1.44%", "result": "Clear, thick, stiffer gel"}, {"measurement": "Appearance", "setting": "[1]; CaCl2 0.01 M, ionic strength 0.03 M, conc. 1.43%", "result": "Clear, thick, stiffer gel"}, {"measurement": "Appearance", "setting": "[1]; CaCl2 0.0117 M, ionic strength 0.035 M, conc. 1.41%", "result": "Clear, thick, stiffer gel"}, {"measurement": "Appearance", "setting": "[1]; CaCl2 0.0133 M, ionic strength 0.04 M, conc. 1.40%", "result": "Slightly cloudy, thick, stiffer gel"}, {"measurement": "Appearance", "setting": "[1]; CaCl2 0.015 M, ionic strength 0.045 M, conc. 1.39%", "result": "Slightly cloudy, thick, stiffer gel"}, {"measurement": "Appearance", "setting": "[1]; CaCl2 0.0167 M, ionic strength 0.05 M, conc. 1.37%", "result": "Slightly cloudy, brittle gel"}, {"measurement": "Appearance", "setting": "[1]; CaCl2 0.0183 M, ionic strength 0.055 M, conc. 1.36%", "result": "Cloudy, phase-separated"}, {"measurement": "Appearance", "setting": "[1]; KCl 0 M, ionic strength 0 M, conc. 1.5%", "result": "Clear, thick gel"}, {"measurement": "Appearance", "setting": "[1]; KCl 0.005 M, ionic strength 0.005 M, conc. 1.46%", "result": "Clear, thick, stiffer gel"}, {"measurement": "Appearance", "setting": "[1]; KCl 0.01 M, ionic strength 0.01 M, conc. 1.43%", "result": "Clear, thick, stiffer gel"}, {"measurement": "Appearance", "setting": "[1]; KCl 0.015 M, ionic strength 0.015 M, conc. 1.39%", "result": "Clear, thick, stiffer gel"}, {"measurement": "Appearance", "setting": "[1]; KCl 0.02 M, ionic strength 0.02 M, conc. 1.35%", "result": "Clear, thick, stiffer gel"}, {"measurement": "Appearance", "setting": "[1]; KCl 0.025 M, ionic strength 0.025 M, conc. 1.31%", "result": "Clear, thick, stiffer gel"}, {"measurement": "Appearance", "setting": "[1]; KCl 0.03 M, ionic strength 0.03 M, conc. 1.27%", "result": "Clear, thick, stiffer gel"}, {"measurement": "Appearance", "setting": "[1]; KCl 0.035 M, ionic strength 0.035 M, conc. 1.24%", "result": "Slightly cloudy, brittle gel"}, {"measurement": "Appearance", "setting": "[1]; KCl 0.04 M, ionic strength 0.04 M, conc. 1.2%", "result": "Slightly cloudy, brittle"}, {"measurement": "Appearance", "setting": "[1]; KCl 0.045 M, ionic strength 0.045 M, conc. 1.16%", "result": "Cloudy, phase-separated"}, {"measurement": "Appearance", "setting": "[1]; MgCl2 0 M, ionic strength 0 M, conc. 1.5%", "result": "Clear, thick gel"}, {"measurement": "Appearance", "setting": "[1]; MgCl2 0.005 M, ionic strength 0.015 M, conc. 1.46%", "result": "Clear, thick, stiffer gel"}, {"measurement": "Appearance", "setting": "[1]; MgCl2 0.0067 M, ionic strength 0.02 M, conc. 1.45%", "result": "Clear, thick, stiffer gel"}, {"measurement": "Appearance", "setting": "[1]; MgCl2 0.0083 M, ionic strength 0.025 M, conc. 1.44%", "result": "Clear, thick, stiffer gel"}, {"measurement": "Appearance", "setting": "[1]; MgCl2 0.01 M, ionic strength 0.03 M, conc. 1.43%", "result": "Clear, thick, stiffer gel"}, {"measurement": "Appearance", "setting": "[1]; MgCl2 0.0117 M, ionic strength 0.035 M, conc. 1.41%", "result": "Clear, thick, stiffer gel"}, {"measurement": "Appearance", "setting": "[1]; MgCl2 0.0133 M, ionic strength 0.04 M, conc. 1.40%", "result": "Slightly cloudy, thick, stiffer gel"}, {"measurement": "Appearance", "setting": "[1]; MgCl2 0.015 M, ionic strength 0.045 M, conc. 1.39%", "result": "Slightly cloudy, stiffer gel"}, {"measurement": "Appearance", "setting": "[1]; MgCl2 0.0167 M, ionic strength 0.05 M, conc. 1.37%", "result": "Slightly cloudy, brittle gel"}, {"measurement": "Appearance", "setting": "[1]; MgCl2 0.0183 M, ionic strength 0.055 M, conc. 1.36%", "result": "Cloudy, phase-separated"}, {"measurement": "Appearance", "setting": "[1]; NaCl 0 M, ionic strength 0 M, conc. 1.5%", "result": "Clear, thick gel"}, {"measurement": "Appearance", "setting": "[1]; NaCl 0.005 M, ionic strength 0.005 M, conc. 1.46%", "result": "Clear, thick, stiffer gel"}, {"measurement": "Appearance", "setting": "[1]; NaCl 0.01 M, ionic strength 0.01 M, conc. 1.43%", "result": "Clear, thick, stiffer gel"}, {"measurement": "Appearance", "setting": "[1]; NaCl 0.015 M, ionic strength 0.015 M, conc. 1.39%", "result": "Clear, thick, stiffer gel"}, {"measurement": "Appearance", "setting": "[1]; NaCl 0.02 M, ionic strength 0.02 M, conc. 1.35%", "result": "Clear, thick, stiffer gel"}, {"measurement": "Appearance", "setting": "[1]; NaCl 0.025 M, ionic strength 0.025 M, conc. 1.31%", "result": "Clear, thick, stiffer gel"}, {"measurement": "Appearance", "setting": "[1]; NaCl 0.03 M, ionic strength 0.03 M, conc. 1.27%", "result": "Slightly cloudy, thick, stiffer gel"}, {"measurement": "Appearance", "setting": "[1]; NaCl 0.035 M, ionic strength 0.035 M, conc. 1.24%", "result": "Slightly cloudy, brittle gel"}, {"measurement": "Appearance", "setting": "[1]; NaCl 0.04 M, ionic strength 0.04 M, conc. 1.2%", "result": "Cloudy, phase-separated"}, {"measurement": "apparent stiffness on salt ionic strength increase", "setting": "[1]; up to the ionic strength at which solutions stay clear", "result": "increased"}, {"measurement": "appearance of peptide solutions with salt and pH adjustment", "setting": "[2]; 0.9% NaCl (ionic strength: 0.15 M) at pH 3.4 adjusted with NaOH", "result": "still clear"}, {"measurement": "rheological property of hydrogels after DMEM treatment at various ionic strengths", "setting": "[2]; 1% hydrogels, DMEM treatment for 10 min", "result": "did not significantly change with ionic strength adjustment up to 0.025 M, while decreases above 0.03 M"}, {"measurement": "rheological property of 1% solutions at various salt ionic strengths", "setting": "[2]; 1% solution, storage modulus at 1 rad/sec", "result": "increases with ionic strength adjustment up to 0.03 M, while decreases above 0.03 M"}, {"measurement": "ionic strength level with NaCl at which the peptide solution begins phase separation becoming cloudy and weak", "setting": "[2]; NaCl", "result": "> 0.03", "unit": "M"}, {"measurement": "rheological property of solutions after ionic strength adjustment with NaCl", "setting": "[2]; NaCl to 0.7 M (PuraMatrix®), 0.2 M (KLD12) or 0.02 M (IEIK13), 1% solutions", "result": "higher"}]}
